Results: patent US20190056396A1 (GLENMARK PHARMACEUTICALS S A, published 2019)

Columns and labels:
Protein A [1] = molecular target: T1, Protein A (UniProt P38507 37-477); experiment: flow cytometry, FITC-labelled Protein A on CHO-S cells transfected with pHC-M1M2 + pLC
T1 construct: also called Protein A biosensors

Protein A [2] = molecular target: T1, Protein A; experiment: Octet QK, Protein A biosensors, supernatant day 6

B1: heavy chain-light chain homodimer of the BEAT antibody displayed on the cell membrane of CHO-S cells via the M1M2 transmembrane region (pHC-M1M2 + pLC) (antibody)
heavy: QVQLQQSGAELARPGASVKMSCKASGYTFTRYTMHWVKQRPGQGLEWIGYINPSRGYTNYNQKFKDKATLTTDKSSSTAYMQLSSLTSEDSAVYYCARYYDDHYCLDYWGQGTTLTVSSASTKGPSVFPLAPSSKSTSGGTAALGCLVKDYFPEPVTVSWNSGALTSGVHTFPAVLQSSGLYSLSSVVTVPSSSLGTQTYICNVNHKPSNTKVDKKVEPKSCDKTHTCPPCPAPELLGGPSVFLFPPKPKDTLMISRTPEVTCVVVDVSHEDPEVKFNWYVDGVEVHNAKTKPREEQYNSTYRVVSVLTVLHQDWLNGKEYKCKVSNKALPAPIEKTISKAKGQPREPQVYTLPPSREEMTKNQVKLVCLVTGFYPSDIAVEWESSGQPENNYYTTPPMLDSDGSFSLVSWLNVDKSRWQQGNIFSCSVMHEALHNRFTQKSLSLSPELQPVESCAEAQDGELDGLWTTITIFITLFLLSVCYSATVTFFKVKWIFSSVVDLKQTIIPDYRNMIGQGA
light: QIVLTQSPAIMSASPGEKVTMTCSASSSVSYMNWYQQKSGTSPKRWIYDTSKLASGVPAHFRGSGSGTSYSLTISGMEAEDAATYYCQQWSSNPFTFGSGTKLEINRTVAAPSVFIFPPSDEQLKSGTASVVCLLNNFYPREAKVQWKVDNALQSGNSQESVTEQDSKDSTYSLSSTLTLSKADYEKHKVYACEVTHQGLSSPVTKSFNRGEC
notes: also called Fab-DIM; Fab homodimer
B1: no binding (Protein A [1]).

B2: secreted heavy chain-light chain homodimer of the BEAT antibody (antibody)
heavy: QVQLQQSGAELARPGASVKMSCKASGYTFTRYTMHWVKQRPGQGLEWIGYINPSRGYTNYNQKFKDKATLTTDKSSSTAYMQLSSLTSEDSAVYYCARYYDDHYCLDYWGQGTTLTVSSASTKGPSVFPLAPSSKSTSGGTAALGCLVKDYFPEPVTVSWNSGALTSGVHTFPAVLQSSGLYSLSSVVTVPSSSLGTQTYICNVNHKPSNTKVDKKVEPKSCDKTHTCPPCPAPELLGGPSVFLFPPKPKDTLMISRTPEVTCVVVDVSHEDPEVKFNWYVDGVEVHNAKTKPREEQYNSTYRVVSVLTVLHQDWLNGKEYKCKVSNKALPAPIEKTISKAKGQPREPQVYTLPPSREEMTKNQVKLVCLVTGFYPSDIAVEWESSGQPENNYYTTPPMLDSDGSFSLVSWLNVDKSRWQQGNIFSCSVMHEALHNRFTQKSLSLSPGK
light: QIVLTQSPAIMSASPGEKVTMTCSASSSVSYMNWYQQKSGTSPKRWIYDTSKLASGVPAHFRGSGSGTSYSLTISGMEAEDAATYYCQQWSSNPFTFGSGTKLEINRTVAAPSVFIFPPSDEQLKSGTASVVCLLNNFYPREAKVQWKVDNALQSGNSQESVTEQDSKDSTYSLSSTLTLSKADYEKHKVYACEVTHQGLSSPVTKSFNRGEC
notes: as for B1
B2: no binding (Protein A [2]).
